Assay results reported in US20190241648A1 (STATEN BIOTECHNOLOGY B V, published 2019).
Ends that are not written are not given here.

What was measured:
Assay in all cases: peptide microarray
ApoC3 peptide … F64G = target: T1, ApoC3 peptide … F64G (human, not fully specified (bridges); also: cyclic constrained)
T1 peptide: DKFSEGWDLDPEV
Method in brief: (§1)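 ApoC3 peptide microarrays incubated with antibody samples and then stained with goat anti-human IgG (Fc) DyLight680 plus anti-HA DyLight800 control antibody. Scanned at intensity 7/7 (red/green); a secondary-only prestain checked for background, and framing HA peptides served as quality control.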

ApoC3 peptide … F64E = target: T2, ApoC3 peptide … F64E (human, not fully specified (bridges); also: cyclic constrained)
T2 peptide: DKFSEEWDLDPEV
Method in brief: as §1

ApoC3 peptide … E70H = target: T3, ApoC3 peptide … E70H (human, not fully specified (bridges); also: cyclic constrained)
T3 peptide: DKFSEFWDLDPHV
Method in brief: as §1

ApoC3 peptide … L67M = target: T4, ApoC3 peptide … L67M (human, not fully specified (bridges); also: cyclic constrained)
T4 peptide: DKFSEFWDMDPEV
Method in brief: as §1

ApoC3 peptide … W65F = ApoC3 peptide … W65F (human, cyclic constrained)
Method in brief: as §1

ApoC3 peptide … D68A = target: T5, ApoC3 peptide … D68A (human, not fully specified (bridges); also: cyclic constrained)
T5 peptide: DKFSEFWDLAPEV
Method in brief: as §1

ApoC3 peptide … E63L = ApoC3 peptide … E63L (human, cyclic constrained)
Method in brief: as §1

ApoC3 peptide … E63M = ApoC3 peptide … E63M (human, cyclic constrained)
Method in brief: as §1

ApoC3 peptide … L67K = target: T6, ApoC3 peptide … L67K (human, not fully specified (bridges); also: cyclic constrained)
T6 peptide: DKFSEFWDKDPEV
Method in brief: as §1

ApoC3 peptide … F64S = target: T7, ApoC3 peptide … F64S (human, not fully specified (bridges); also: cyclic constrained)
T7 peptide: DKFSESWDLDPEV
Method in brief: as §1

ApoC3 peptide … L67R = target: T8, ApoC3 peptide … L67R (human, not fully specified (bridges); also: cyclic constrained)
T8 peptide: DKFSEFWDRDPEV
Method in brief: as §1

ApoC3 peptide … F64A = target: T9, ApoC3 peptide … F64A (human, not fully specified (bridges); also: cyclic constrained)
T9 peptide: DKFSEAWDLDPEV
Method in brief: as §1

ApoC3 peptide … P69D = target: T10, ApoC3 peptide … P69D (human, not fully specified (bridges); also: cyclic constrained)
T10 peptide: DKFSEFWDLDDEV
Method in brief: as §1

ApoC3 peptide … E70S = target: T11, ApoC3 peptide … E70S (human, cyclic constrained)
T11 peptide: DKFSEFWDLDPSV
Method in brief: as §1

ApoC3 peptide … P69H = target: T12, ApoC3 peptide … P69H (human, not fully specified (bridges); also: cyclic constrained)
T12 peptide: DKFSEFWDLDHEV
Method in brief: as §1

ApoC3 peptide … V71P = ApoC3 peptide … V71P (human, cyclic constrained)
Method in brief: as §1

ApoC3 peptide … F64I = target: T13, ApoC3 peptide … F64I (human, not fully specified (bridges); also: cyclic constrained)
T13 peptide: DKFSEIWDLDPEV
Method in brief: as §1

ApoC3 peptide … D66Y = target: T14, ApoC3 peptide … D66Y (human, not fully specified (bridges); also: cyclic constrained)
T14 peptide: DKFSEFWYLDPEV
Method in brief: as §1

ApoC3 peptide … V71A = ApoC3 peptide … V71A (human, cyclic constrained)
Method in brief: as §1

ApoC3 peptide … L67H = target: T15, ApoC3 peptide … L67H (human, not fully specified (bridges); also: cyclic constrained)
T15 peptide: DKFSEFWDHDPEV
Method in brief: as §1

ApoC3 peptide … D59C = target: T16, ApoC3 peptide … D59C (human, cyclic constrained)
T16 peptide: CKFSEFWDLDPEV
Method in brief: as §1

ApoC3 peptide … K60I = target: T17, ApoC3 peptide … K60I (human, not fully specified (bridges); also: cyclic constrained)
T17 peptide: DIFSEFWDLDPEV
Method in brief: as §1

ApoC3 peptide … D68I = target: T18, ApoC3 peptide … D68I (human, cyclic constrained)
T18 peptide: DKFSEFWDLIPEV
Method in brief: as §1

ApoC3 peptide … V71C = ApoC3 peptide … V71C (human, cyclic constrained)
Method in brief: as §1

ApoC3 peptide … W65I = target: T19, ApoC3 peptide … W65I (human, not fully specified (bridges); also: cyclic constrained, ring type and places not given here)
T19 peptide: DKFSEFIDLDPEV
Method in brief: as §1

ApoC3 peptide … E70L = target: T20, ApoC3 peptide … E70L (human, not fully specified (bridges); also: cyclic constrained)
T20 peptide: DKFSEFWDLDPLV
Method in brief: as §1

ApoC3 peptide … E70D = ApoC3 peptide … E70D (human, cyclic constrained)
Method in brief: as §1

ApoC3 peptide … S62D = ApoC3 peptide … S62D (human, cyclic constrained)
Method in brief: as §1

ApoC3 peptide … L67F = target: T21, ApoC3 peptide … L67F (human, not fully specified (bridges); also: cyclic constrained)
T21 peptide: DKFSEFWDFDPEV
Method in brief: as §1

ApoC3 peptide … E70C = ApoC3 peptide … E70C (human, cyclic constrained)
Method in brief: as §1

ApoC3 peptide … P69C = target: T22, ApoC3 peptide … P69C (human, not fully specified (bridges); also: cyclic constrained)
T22 peptide: DKFSEFWDLDCEV
Method in brief: as §1

ApoC3 peptide … F64V = target: T23, ApoC3 peptide … F64V (human, not fully specified (bridges); also: cyclic constrained)
T23 peptide: DKFSEVWDLDPEV
Method in brief: as §1

ApoC3 peptide … P69E = target: T24, ApoC3 peptide … P69E (human, not fully specified (bridges); also: cyclic constrained)
T24 peptide: DKFSEFWDLDEEV
Method in brief: as §1

ApoC3 peptide … W65L = target: T25, ApoC3 peptide … W65L (human, not fully specified (bridges); also: cyclic constrained, ring type and places not given here)
T25 peptide: DKFSEFLDLDPEV
Method in brief: as §1

ApoC3 peptide … D66H = target: T26, ApoC3 peptide … D66H (human, not fully specified (bridges); also: cyclic constrained)
T26 peptide: DKFSEFWHLDPEV
Method in brief: as §1

ApoC3 peptide … P69V = ApoC3 peptide … P69V (human, cyclic constrained)
Method in brief: as §1

B1: anti-ApoC3 antibody 6A6 (antibody, V domains shown)
VH: EVQLVESGGGLVQPGGSLRLSCAASGFTFSSYAGRWVRQVPGKGLEWVSSINAGGGSTSYADSVKGRFTISRDNAKNTLYLQMNSLKPEDTAKYYCTQNSYRYWGQGTRVAVSS
VL: DVVLTQTPGSLSVVPGESASISCKASQSLIHTDGKTYLYWLLQKPGQRPQLLIYQVSSHESGVPDRFTGSGSGTDFTLKISGVKAEDAGVYYCAQATYNPRTFGQGTKLEIK
notes: it was detected with goat anti-human IgG (Fc); also called mAb 6A6; llama antibody 6A6
- % of binding to wild-type peptide (ApoC3 peptide … F64G): 168%
- % of binding to wild-type peptide (ApoC3 peptide … F64E): 236%
- % of binding to wild-type peptide (ApoC3 peptide … E70H): 0.03%
- % of binding to wild-type peptide (ApoC3 peptide … L67M): 43.4%
- % of binding to wild-type peptide (ApoC3 peptide … W65F): 55.3%
- % of binding to wild-type peptide (ApoC3 peptide … D68A): 0%
- % of binding to wild-type peptide (ApoC3 peptide … E63L): 10.1%
- % of binding to wild-type peptide (ApoC3 peptide … E63M): 43.5%
- % of binding to wild-type peptide (ApoC3 peptide … L67K): 25.8%
- % of binding to wild-type peptide (ApoC3 peptide … F64S): 196%
- % of binding to wild-type peptide (ApoC3 peptide … L67R): 22.6%
- % of binding to wild-type peptide (ApoC3 peptide … F64A): 166%
- % of binding to wild-type peptide (ApoC3 peptide … P69D): 98.5%
- % of binding to wild-type peptide (ApoC3 peptide … E70S): 1.05%
- % of binding to wild-type peptide (ApoC3 peptide … P69H): 19.2%
- % of binding to wild-type peptide (ApoC3 peptide … V71P): 110%
- % of binding to wild-type peptide (ApoC3 peptide … F64I): 100%
- % of binding to wild-type peptide (ApoC3 peptide … D66Y): 0%
- % of binding to wild-type peptide (ApoC3 peptide … V71A): 85.2%
- % of binding to wild-type peptide (ApoC3 peptide … L67H): 7.67%
- % of binding to wild-type peptide (ApoC3 peptide … D59C): 69.2%
- % of binding to wild-type peptide (ApoC3 peptide … K60I): 116%
- % of binding to wild-type peptide (ApoC3 peptide … D68I): 0%
- % of binding to wild-type peptide (ApoC3 peptide … V71C): 100%
- % of binding to wild-type peptide (ApoC3 peptide … W65I): 20.3%
- % of binding to wild-type peptide (ApoC3 peptide … E70L): 1.22%
- % of binding to wild-type peptide (ApoC3 peptide … E70D): 13.8%
- % of binding to wild-type peptide (ApoC3 peptide … S62D): 35%
- % of binding to wild-type peptide (ApoC3 peptide … L67F): 26.3%
- % of binding to wild-type peptide (ApoC3 peptide … E70C): 0%
- % of binding to wild-type peptide (ApoC3 peptide … P69C): 28.9%
- % of binding to wild-type peptide (ApoC3 peptide … F64V): 86%
- % of binding to wild-type peptide (ApoC3 peptide … P69E): 152%
- % of binding to wild-type peptide (ApoC3 peptide … W65L): 18.5%
- % of binding to wild-type peptide (ApoC3 peptide … D66H): 0%
- % of binding to wild-type peptide (ApoC3 peptide … P69V): 68.3%
